Laboratory results taken from patent publication CN118206654A (BEILAI PHARMACEUTICAL CO LTD, dated 2024).

T1: Biotin-IL-17A-His (human, UniProt Q16552 24-155, limits assumed, biotin (site not stated))
T1 construct: also called 人IL-17A蛋白 (biotinylated)
T1 sequence: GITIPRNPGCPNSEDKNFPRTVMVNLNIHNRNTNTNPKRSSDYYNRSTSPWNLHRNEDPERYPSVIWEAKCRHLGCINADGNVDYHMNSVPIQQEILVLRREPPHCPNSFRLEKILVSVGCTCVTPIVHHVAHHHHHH


Experiments:
[1] = target: IL-17RA and IL-17RC co-expressed on 293F-IL-17RA-IL-17Rc-ACT1-NFκB-Luc cells (UniProt Q96F46); experiment: flow cytometry; IL17A-His on 293F-IL-17RA-IL-17Rc-ACT1-NFκB-Luc cells, APC anti-His
Biotin-IL-17A-His = target: T1, Biotin-IL-17A-His; experiment: ELISA; antibody coated at 2 ug/mL, Biotin-IL-17A-His titrated from 10 ug/mL (5-fold, 7 points), HRP-Streptavidin; the concentration is that of IL-17A

Row | Molecule | 阳性率 [1] | EC50 (Biotin-IL-17A-His)
1 | Human IL-17A重组蛋白 (C-terminal 6×His) (from UniProt Q16552 24-155) (ligand) | > 90% | –
2 | 阳性对照抗体Ixekizumab (antibody, human IgG4 S228P, kappa, V domains shown, also called 阳性抗体) VH: QVQLVQSGAEVKKPGSSVKVSCKASGYSFTDYHIHWVRQAPGQGLEWMGVINPMYGTTDYNQRFKGRVTITADESTSTAYMELSSLRSEDTAVYYCARYDYFTGTGVYWGQGTLVTVSS VL: DIVMTQTPLSLSVTPGQPASISCRSSRSLVHSRGNTYLHWYLQKPGQSPQLLIYKVSNRFIGVPDRFSGSGSGTDFTLKISRVEAEDVGVYYCSQSTHLPFTFGQGTKLEIKR | – | 10.1 µg/mL
